These results are taken from PMC6321638, “Thermodynamic Characterization of the Ca^2+-Dependent Interaction Between SOUL and ALG-2” (International Journal of Molecular Sciences, 2018).

The term stoichiometry N denotes the number of molecules, sites or subunits per partner or assembly. For orientation: Kd means the concentration at which binding is half-saturated. A low value points to a tighter complex.

First the molecules themselves.
B1: His-SOUL^WT (wild-type SOUL fused to His-tag) (natural protein, mouse, UniProt Q9WU63 1-205, looked up)
chain: MAEEPEPDLGVAEGSEDQALEMPSWKAPEDIDPQPGSYEIRHYGPAKWVSTCVESLDWDSAIQTGFTKLNGYIQGKNEKEMKIKLTAPVTSYVEPGSSPFSESTITISLYIPSEQQPDPPRPSESDVFIEDRAEMTVFVRSFDGFSSGQKNQEQLLTLANILREEGKVFNEKVFYTAGYSSPFQLLDRNNEVWLIQKNEPSVENK
notes: Cloned into the Nde I and Sal I sites of pET28a(+); this probably gives an N-terminal His-tag with a thrombin site (surmised); Dimer by gel filtration; also called mSOUL; source: E. coli BL21(DE3) with pGroESL, purified (Ni-NTA-agarose, Sephadex G-25)
B2: GST-ALG-2^WT (wild-type ALG-2 fused to GST-tag) (natural protein, mouse, UniProt P12815 1-191, looked up)
chain: MAAYSYRPGPGGGPGPAAGAALPDQSFLWNVFQRVDKDRSGVISDNELQQALSNGTWTPFNPVTVRSIISMFDRENKAGVNFSEFTGVWKYITDWQNVFRTYDRDNSGMIDKNELKQALSGFGYRLSDQFHDILIRKFDRQGRGQIAFDDFIQGCIVLQRLTDIFRRYDTDQDGWIQVSYEQYLSMVFSIV
notes: ALG-2 (apoptosis-linked gene 2, PDCD6), murine, 1-191 amino acids; Cloned into the BamH I and Sal I sites of pGEX-4T-2; GST is probably N-terminal (surmised); also called apoptosis-linked gene 2 protein; PDCD6; source: E. coli BL21-CodonPlus(DE3)-(RIPL), purified (ammonium sulfate, Glutathione Sepharose, Sephadex G-25)
B4: delta3-23ALG-2^WT (domain or fragment, mouse, UniProt P12815 1-191, looked up)
chain: MADQSFLWNVFQRVDKDRSGVISDNELQQALSNGTWTPFNPVTVRSIISMFDRENKAGVNFSEFTGVWKYITDWQNVFRTYDRDNSGMIDKNELKQALSGFGYRLSDQFHDILIRKFDRQGRGQIAFDDFIQGCIVLQRLTDIFRRYDTDQDGWIQVSYEQYLSMVFSIV
notes: ALG-2 (PDCD6), murine, with deletion of the N-terminal 3-23 amino acids (the hydrophobic 21 residues); the plasmid paragraph calls it 24-191 amino acids, without tag; source: E. coli BL21-CodonPlus(DE3)-(RIPL), purified (Ca2+ precipitation, HiTrap Q, Sephacryl S-200 HR)
B7: delta3-23ALG-2^∆GF (domain or fragment, mouse, UniProt P12815 1-191, looked up)
chain: MADQSFLWNVFQRVDKDRSGVISDNELQQALSNGTWTPFNPVTVRSIISMFDRENKAGVNFSEFTGVWKYITDWQNVFRTYDRDNSGMIDKNELKQALSGYRLSDQFHDILIRKFDRQGRGQIAFDDFIQGCIVLQRLTDIFRRYDTDQDGWIQVSYEQYLSMVFSIV
notes: ALG-2 (PDCD6), murine, deletion of the N-terminal 3-23 amino acids and of Gly121 and Phe122 (splice variant); numbers count on full-length ALG-2^WT; N-terminus as for m3; source: E. coli, purified (as delta3-23ALG-2)

For data set [1], the target named is B4. Description: SEC; Sephacryl-S-200 HR (150 mL), 1 mL of each protein sample (5 µM), buffer B with 20 µM CaCl2; fractions by SDS-PAGE. As to conditions: both partners purified. In general terms: In gel filtration, larger molecules generally elute earlier.
Data set [2] deals with the molecule itself. The data set is described as above.
In data set [3] the target is B4. The experiment in a line: ITC; His-SOUL (130 or 260 µM) injected into delta3-23ALG-2 (5 or 10 µM); 25 °C, pH 7.5, buffer C (25 mM HEPES, 150 mM NaCl, 10% glycerol) with 15 µM CaCl2 and 0.25% Tween 20; one-set-of-sites model (sequential-binding-sites model also tried). As to conditions: both partners purified. On the technique in general: Isothermal titration calorimetry measures the heat released or taken up as one component is titrated into another.

Data set [4] concerns the target B4. Described as above. As to conditions: both partners purified. The source holds these as a separate data set.
The target of the data set “delta3-23ALG-2^∆GF” is B7. The description is as above. As to conditions: both partners purified.
The target of data set [5] is B1. Description: pull-down; GST-pulldown: purified His-SOUL (5 µM) and GST-ALG-2 (5 µM) with Glutathione Sepharose 4B in buffer B (100 mM Tris-HCl pH 7.5, 100 mM NaCl, 10% glycerol) with 20 µM CaCl2 (or various amounts of Ca2+), 30 min at 4 °C; SDS-PAGE, Coomassie. As to conditions: both partners purified.
Data set [6] concerns the target B1. Description: ITC; His-SOUL (130 or 260 µM) injected into delta3-23ALG-2 (5 or 10 µM); 25 °C, pH 7.5, buffer C (25 mM HEPES, 150 mM NaCl, 10% glycerol) with 15 µM CaCl2 and 0.25% Tween 20; one-set-of-sites model (sequential-binding-sites model also tried). As to conditions: both partners purified.
Data set [7] addresses B2. The experiment in a line: pull-down; GST-pulldown: purified His-SOUL (5 µM) and GST-ALG-2 (5 µM) with Glutathione Sepharose 4B in buffer B (100 mM Tris-HCl pH 7.5, 100 mM NaCl, 10% glycerol) with 20 µM CaCl2 (or various amounts of Ca2+), 30 min at 4 °C; SDS-PAGE, Coomassie. As to conditions: both partners purified.

With B1, the “stoichiometry N” value with delta3-23ALG-2^WT [1] stood at 1; in data set [2] it was 2; in the data set with delta3-23ALG-2^WT [4], 1.16 ± 0.02; with delta3-23ALG-2^∆GF it was 1 ± 0.07. Further, in the data set with delta3-23ALG-2^WT [3], the “Kd of the first binding (sequential-binding-sites model)” value turned out to be 37 nM. The “Kd of the second binding (sequential-binding-sites model)” value with delta3-23ALG-2^WT [3] was found to be 40 nM. In addition, the dH with delta3-23ALG-2^WT [4] was -17.9 ± 0.7 kcal/mol; with delta3-23ALG-2^∆GF it was -19.8 ± 2 kcal/mol. For the molecule B2, in data set [5], the binding result is given as “binds”.

B3: GST-ALG-2 W89A (natural protein, mouse, UniProt P12815 1-191, looked up)
chain: MAAYSYRPGPGGGPGPAAGAALPDQSFLWNVFQRVDKDRSGVISDNELQQALSNGTWTPFNPVTVRSIISMFDRENKAGVNFSEFTGVAKYITDWQNVFRTYDRDNSGMIDKNELKQALSGFGYRLSDQFHDILIRKFDRQGRGQIAFDDFIQGCIVLQRLTDIFRRYDTDQDGWIQVSYEQYLSMVFSIV
notes: ALG-2 (PDCD6), murine, 1-191 amino acids with W89A (pocket 3); source: E. coli, purified (as GST-ALG-2)
Turning to B3, the binding result in data set [5] is “binds”. As for B4, binding in data set [6] was characterised by a dissociation constant (Kd) of 32.4 ± 6.6 nM.

B5: GST-ALG-2 I92A (natural protein, mouse, UniProt P12815 1-191, looked up)
chain: MAAYSYRPGPGGGPGPAAGAALPDQSFLWNVFQRVDKDRSGVISDNELQQALSNGTWTPFNPVTVRSIISMFDRENKAGVNFSEFTGVWKYATDWQNVFRTYDRDNSGMIDKNELKQALSGFGYRLSDQFHDILIRKFDRQGRGQIAFDDFIQGCIVLQRLTDIFRRYDTDQDGWIQVSYEQYLSMVFSIV
notes: ALG-2 (PDCD6), murine, 1-191 amino acids with I92A (pocket 3); source: E. coli, purified (as GST-ALG-2)
With B5, in data set [5], the binding result is given as “binds”.

B6: GST-ALG-2 L52A (natural protein, mouse, UniProt P12815 1-191, looked up)
chain: MAAYSYRPGPGGGPGPAAGAALPDQSFLWNVFQRVDKDRSGVISDNELQQAASNGTWTPFNPVTVRSIISMFDRENKAGVNFSEFTGVWKYITDWQNVFRTYDRDNSGMIDKNELKQALSGFGYRLSDQFHDILIRKFDRQGRGQIAFDDFIQGCIVLQRLTDIFRRYDTDQDGWIQVSYEQYLSMVFSIV
notes: ALG-2 (PDCD6), murine, 1-191 amino acids with L52A (pocket 3); source: E. coli, purified (as GST-ALG-2)
As for B6, the binding result in data set [5] is given as “binds”. Turning to B7, the equilibrium dissociation constant (Kd) in data set [6] was determined as 62 ± 13.7 nM.

B8: GST-ALG-2^∆GF (natural protein, mouse, UniProt P12815 1-191, looked up)
chain: MAAYSYRPGPGGGPGPAAGAALPDQSFLWNVFQRVDKDRSGVISDNELQQALSNGTWTPFNPVTVRSIISMFDRENKAGVNFSEFTGVWKYITDWQNVFRTYDRDNSGMIDKNELKQALSGYRLSDQFHDILIRKFDRQGRGQIAFDDFIQGCIVLQRLTDIFRRYDTDQDGWIQVSYEQYLSMVFSIV
notes: ALG-2 (PDCD6), murine, natural splice variant with deletion of Gly121 and Phe122; made by PCR-based mutagenesis of the 1-191 construct; also called ALG-2^ΔGF; source: E. coli, purified (as GST-ALG-2)
Regarding B8, in data set [5], the binding result is on record as “binds”.

B9: GST-ALG-2 F85A (natural protein, mouse, UniProt P12815 1-191, looked up)
chain: MAAYSYRPGPGGGPGPAAGAALPDQSFLWNVFQRVDKDRSGVISDNELQQALSNGTWTPFNPVTVRSIISMFDRENKAGVNFSEATGVWKYITDWQNVFRTYDRDNSGMIDKNELKQALSGFGYRLSDQFHDILIRKFDRQGRGQIAFDDFIQGCIVLQRLTDIFRRYDTDQDGWIQVSYEQYLSMVFSIV
notes: ALG-2 (PDCD6), murine, 1-191 amino acids with F85A (pocket 3); source: E. coli, purified (as GST-ALG-2)
For B9, the binding result in data set [5] is given as “binds”.

B10: His-SOUL1-143 (domain or fragment, mouse, UniProt Q9WU63 1-143, looked up)
chain: MAEEPEPDLGVAEGSEDQALEMPSWKAPEDIDPQPGSYEIRHYGPAKWVSTCVESLDWDSAIQTGFTKLNGYIQGKNEKEMKIKLTAPVTSYVEPGSSPFSESTITISLYIPSEQQPDPPRPSESDVFIEDRAEMTVFVRSFD
notes: source: E. coli BL21(DE3) with pGroESL, purified (Ni-NTA-agarose, Sephadex G-25)
For the molecule B10, in the data set with delta3-23ALG-2^WT [3], the Kd came to 1300 nM and the “stoichiometry N” value was 1.

B11: His-SOUL mutant (36-111/126-205) without two PRRs (domain or fragment, mouse, UniProt Q9WU63 36-205, looked up)
chain: GSYEIRHYGPAKWVSTCVESLDWDSAIQTGFTKLNGYIQGKNEKEMKIKLTAPVTSYVEPGSSPFSESTITISLYIDVFIEDRAEMTVFVRSFDGFSSGQKNQEQLLTLANILREEGKVFNEKVFYTAGYSSPFQLLDRNNEVWLIQKNEPSVENK
notes: as for B10
With B11, the binding result in data set [7] is “binds”.

B12: His-SOUL1-111 (domain or fragment, mouse, UniProt Q9WU63 1-111, looked up)
chain: MAEEPEPDLGVAEGSEDQALEMPSWKAPEDIDPQPGSYEIRHYGPAKWVSTCVESLDWDSAIQTGFTKLNGYIQGKNEKEMKIKLTAPVTSYVEPGSSPFSESTITISLYI
notes: SOUL (HEBP2), murine, residues 1-111; source: E. coli BL21(DE3) with pGroESL, purified (Ni-NTA-agarose, Sephadex G-25)
On to B12, for which the binding result in data set [7] was “binds”.
